# In patent US6593099B2, “Regulation of human S-acyl fatty acid synthase thioesterase-like enzyme” (Bayer Aktiengesellschaft, priority 2000, dated 2003):
# Legend:
# [1] = molecular target: T1, S-acyl fatty acid synthase thioesterase-like enzyme short (long) polypeptide (coolEST49) (Homo sapiens, UniProt Q9NV23); test: Discontinuous DTNB thioesterase activity / inhibition assay with palmitoyl CoA; type: biochemical; settings: 1 mM AEBSF
# T1 construct: 6xHis (N); made in house; host or cells: E. coli BL21 (DE3), pET-28a
# T1 sequence (Q9NV23 whole entry): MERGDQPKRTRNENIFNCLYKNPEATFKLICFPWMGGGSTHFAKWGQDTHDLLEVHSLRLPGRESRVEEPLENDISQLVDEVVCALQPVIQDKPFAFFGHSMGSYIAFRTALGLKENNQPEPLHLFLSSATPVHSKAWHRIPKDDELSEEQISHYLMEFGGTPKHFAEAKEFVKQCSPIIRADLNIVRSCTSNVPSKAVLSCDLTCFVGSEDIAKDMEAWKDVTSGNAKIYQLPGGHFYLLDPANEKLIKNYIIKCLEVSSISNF
# Description: Activity of both protein peaks was assayed using an optimized discontinuous assay format. Reaction mixture was 100 mM Tris (pH 8.0), 100 nM coolEST49,±0.1 mM palmitoyl CoA in a volume of 100 μL. The mixture was allowed to incubate at room temperature for 3 hours. After incubation, 150 μL of developer mixture (0.42 mM DTNB in 100 mM Tris) was added, and the absorbance at 412 nm was measured using a 96-well plate reader, using samples without palmitoyl CoA as blanks.
# Activity of S-acyl fatty acid synthase thioesterase-like enzyme short (long) polypeptide from the anion exchange column was assayed and compared to that of the eluate from the Ni-NTA column step. An attempt was also made at inhibiting S-acyl fatty acid synthase thioesterase-like enzyme short (long) polypeptide with either DEPC (7 mM) or AEBSF (1 mM).
# [2] = molecular target: T2, S-acyl fatty acid synthase thioesterase-like enzyme short (long) polypeptide (Homo sapiens, UniProt Q9NV23); test: Continuous DTNB assay, kinetics and substrate searching; settings: Batch 1 from baculovirus
# T2 sequence (Q9NV23 whole entry): as above
# Description: (§1) A continuous assay format was used to get kinetic information on this preparation of S-acyl fatty acid synthase thioesterase-like enzyme short (long) polypeptide, using the same conditions as with the discontinuous assay, except with this format, developer was added to enzyme until a flat signal was achieved, then the reaction was started by the addition of substrate. Along with palmitoyl CoA, the other substrates assayed were acetyl CoA, octanoyl CoA, decanoyl CoA, and lauroyl CoA.
# (§2) S-acyl fatty acid synthase thioesterase-like enzyme short (long) polypeptide activity was assayed in the continuous format as described.
# [3] = molecular target: T2, S-acyl fatty acid synthase thioesterase-like enzyme short (long) polypeptide; test: Comparison of continuous and discontinuous assay format (pre-incubation with DTNB); type: biochemical; parameters: His6; made in house; host or cells: Sf9 insect cells, baculovirus; settings: DTNB at the concentrations used in the continuous assay format
# Description: S-acyl fatty acid synthase thioesterase-like enzyme short (long) polypeptide was incubated in the presence or absence of DTNB, and the A412 was monitored until a baseline was achieved. Substrate (palmitoyl CoA) was then added to each incubation and was incubated for an additional 50 minutes. After this period of time, A412 of each sample was compared to determine whether the pre-incubation of enzyme with DTNB inactivates the enzyme. Enzyme without substrate was used as a blank for the discontinuous assay.
# [4] = system: CCCCCCCCCCCCCCCC(=O)SCCNC(=O)CCNC(=O)[C@H](O)C(C)(C)COP(=O)(O)OP(=O)(O)OC[C@H]1O[C@@H](n2cnc3c(N)ncnc32)[C@H](O)[C@@H]1OP(=O)(O)O; test: purified protein, by the assay type; settings: continuous assay
# Description: as §1, §2
# [5] = system: CCCCCCCCCC(=O)SCCNC(=O)CCNC(=O)[C@H](O)C(C)(C)COP(=O)(O)OP(=O)(O)OC[C@H]1O[C@@H](n2cnc3c(N)ncnc32)[C@H](O)[C@@H]1OP(=O)(O)O; test: purified protein, by the assay type; settings: other: Batch 1 from baculovirus, continuous assay
# Description: as §1, §2
# [6] = system: CCCCCCCC(=O)SCCNC(=O)CCNC(=O)[C@H](O)C(C)(C)COP(=O)(O)OP(=O)(O)OC[C@H]1O[C@@H](n2cnc3c(N)ncnc32)[C@H](O)[C@@H]1OP(=O)(O)O; test: purified protein, by the assay type; settings: other: Batch 1 from baculovirus, continuous assay
# Description: as §1, §2
# [7] = system: CCCCCCCCCCCC(=O)SCCNC(=O)CCNC(=O)[C@H](O)C(C)(C)COP(=O)(O)OP(=O)(O)OC[C@H]1O[C@@H](n2cnc3c(N)ncnc32)[C@H](O)[C@@H]1OP(=O)(O)O; test: purified protein, by the assay type; settings: other: Batch 1 from baculovirus, continuous assay
# Description: as §1, §2
# [8] = other: Batch 1 from baculovirus
compound,measurement,setting,value
"Cl.NCCc1ccc(S(=O)(=O)F)cc1 [AEBSF, 4-(2-Aminoethyl)Benzenesulfonyl Fluoride Hydrochloride]",Inhibition of S-acyl fatty acid synthase thioesterase-like enzyme short (long) polypeptide activity,[1],inhibited
CC(=O)SCCNC(=O)CCNC(=O)[C@H](O)C(C)(C)COP(=O)(O)OP(=O)(O)OC[C@H]1O[C@@H](n2cnc3c(N)ncnc32)[C@H](O)[C@@H]1OP(=O)(O)O [Acetyl CoA],Km,[2],immeasurable
same,kcat,[2]; footnote: 1.0 = 23 mOD/min,immeasurable
"O=C(O)c1cc(SSc2ccc([N+](=O)[O-])c(C(=O)O)c2)ccc1[N+](=O)[O-] [DTNB, 5,5′-dithiobis(2-nitrobenzoic acid)]",Inactivation of the enzyme,[3],60%
S-acyl fatty acid synthase thioesterase-like enzyme short (long) polypeptide (Homo sapiens),Km,[4]; [8],5.1 µM
same,kcat,[4]; [8],0.0167 s⁻¹
same,Km,[4]; other: Batch 2 from baculovirus,2.4 µM
same,Km,[5],856.1 µM
same,kcat,[5],0.0467 s⁻¹
same,Km,[6],"12,400 μM"
same,kcat,[6],0.115 s⁻¹
same,Km,[7],76.7 µM
same,kcat,[7],0.0167 s⁻¹
